Test results as given in US7183387 (Genentech, dated 2007).
Changes are numbered by the printed parent chain. Names and notes keep the numbering of the source.

T1: human FcγRIIA-Arg131 α subunit extracellular domain-His6-GST fusion (human, UniProt P12318 34-217)
T1 construct: extracellular domain; also called FcγRIIA-R131; not shown: glutathione S transferase (GST)
T1 sequence: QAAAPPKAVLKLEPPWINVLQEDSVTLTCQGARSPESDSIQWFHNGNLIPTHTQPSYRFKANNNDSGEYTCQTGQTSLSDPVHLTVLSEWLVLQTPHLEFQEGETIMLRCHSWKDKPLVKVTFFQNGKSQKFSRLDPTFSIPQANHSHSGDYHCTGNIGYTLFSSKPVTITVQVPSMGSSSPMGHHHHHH

T2: human FcγRIIB α subunit extracellular domain-His6-GST fusion (human, UniProt P31994 43-217)
T2 construct: extracellular domain; also called CD32; not shown: glutathione S transferase (GST)
T2 sequence: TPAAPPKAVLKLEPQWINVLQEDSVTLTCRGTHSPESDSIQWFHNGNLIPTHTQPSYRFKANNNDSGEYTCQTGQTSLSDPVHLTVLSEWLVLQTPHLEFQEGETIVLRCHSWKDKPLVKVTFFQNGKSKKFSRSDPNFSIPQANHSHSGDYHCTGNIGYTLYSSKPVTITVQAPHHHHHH

T3: human FcγRIIA-R131 α subunit extracellular domain-6His-GST fusion (human, UniProt P12318 34-217)
T3 construct: also called FcγRIIA-Arg131; not shown: glutathione S-transferase (GST)
T3 sequence: T1 sequence

T4: human FcγRIIB α subunit extracellular domain-6His-GST fusion (human, UniProt P31994 43-217)
T4 construct: not shown: glutathione S-transferase (GST)
T4 sequence: T2 sequence

T5: human FcγRIIA-H131 α subunit extracellular domain-His6-GST fusion protein (human, UniProt P12318 34-217)
T5 construct: also called FcγRIIA-His131; not shown: glutathione S-transferase (GST)
T5 sequence: T1 sequence with R134H

T6: human FcγRIIA-R131 α subunit extracellular domain-His6-GST fusion protein (human, UniProt P12318 34-217)
T6 construct: ECD-6His-GST fusion made in 293 cells, coated on the plate; also called FcγRIIA-Arg131; not shown: glutathione S-transferase (GST)
T6 sequence: T1 sequence

B1: anti-IgE E27 IgG1 Arg416 changed to Ala (antibody)
heavy: not shown
light: DIQLTQSPSSLSASVGDRVTITCRASKPVDGEGDSYLNWYQQKPGKAPKLLIYAASYLESGVPSRFSGSGSGTDFTLTISSLQPEDFATYYCQQSHEDPYTFGQGTKVEIKRTVAAPSVFIFPPSDEQLKSGTASVVCLLNNFYPREAKVQWKVDNALQSGNSQESVTEQDSKDSTYSLSSTLTLSKADYEKHKVYACEVTHQGLSSPVTKSFNRGEC
notes: named only by its position
B2: anti-IgE E27 IgG1 Glu293Ala (antibody)
heavy: not shown
light: B1 light
B3: anti-IgE E27 IgG1 Tyr296Phe (antibody)
heavy: not shown
light: B1 light
B4: E27 IgG1 variant K334(353)M (antibody)
heavy: not shown
light: B1 light
notes: also called IG2 190
B5: E27 IgG1 variant K290(307)E (antibody)
heavy: not shown
light: B1 light
notes: also called IG2 77
B6: E27 IgG1 variant A339(359)T (antibody)
heavy: not shown
light: B1 light
notes: also called IG2 273
B7: E27 IgG1 variant K290(307)R (antibody)
heavy: not shown
light: B1 light
notes: also called IG2 78
B8: E27 IgG1 variant K334(353)Y (antibody)
heavy: not shown
light: B1 light
B9: E27 IgG1 variant K334(353)H (antibody)
heavy: not shown
light: B1 light
B10: E27 IgG1 variant K334(353)W (antibody)
heavy: not shown
light: B1 light
B11: anti-IgE E27 IgG1 variant Ser267Ala (antibody)
heavy: not shown
light: B1 light
notes: also called S267(280)A; S280A
B12: anti-IgE E27 IgG1 variant Ser267Gly (antibody)
heavy: not shown
light: B1 light
notes: also called S267(280)G; IG2 189
B13: anti-IgE E27 IgG1 variant Lys317Ala (antibody)
heavy: not shown
light: B1 light
notes: also called K317(336)A; IG2 46
B14: anti-IgE E27 IgG1 variant Ser267Ala/His268Ala (antibody)
heavy: not shown
light: B1 light
notes: also called S267(280)A H268(281)A; IG2 96
B15: anti-IgE E27 IgG1 variant Asn315Ala (antibody)
heavy: not shown
light: B1 light
notes: also called IG2 45
B16: anti-IgE E27 IgG1 variant Thr307Ala (antibody)
heavy: not shown
light: B1 light
notes: also called T307(326)A; IG2 41
B17: anti-IgE E27 IgG1 variant Val305Ala (antibody)
heavy: not shown
light: B1 light
notes: also called V305(324)A; IG2 40
B18: anti-IgE E27 IgG1 variant His268Ala (antibody)
heavy: not shown
light: B1 light
notes: also called H268(281)A; H281A

The binders below were run against T1, human FcγRIIA-Arg131 α subunit … (assay: hexamer ELISA).

Binder	reduction in binding against native IgG1
B1	30%

What follows are binders tested against T7, human FcγRIIIA-Phe158 α subunit extracellular domain-His6-GST fusion (human, UniProt P08637 17-208) (assay: hexamer ELISA).
T7 construct: extracellular domain; also called FcγRIIIA-F158; CD16; not shown: glutathione S transferase (GST)
T7 sequence (P08637 other isoform, or with tags, fused parts or gaps): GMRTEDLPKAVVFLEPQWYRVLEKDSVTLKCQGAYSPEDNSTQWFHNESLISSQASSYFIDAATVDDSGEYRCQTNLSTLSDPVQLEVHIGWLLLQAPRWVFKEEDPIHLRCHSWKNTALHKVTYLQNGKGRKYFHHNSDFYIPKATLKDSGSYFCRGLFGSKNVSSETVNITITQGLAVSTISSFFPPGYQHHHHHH

Binder	reduction in binding against native IgG1
B1	30%
B2	70%
B3	50%

Biological target: T1, human FcγRIIA-Arg131 α subunit …
Assay: hexamer ELISA
Remark: another data set of the same source

Binder	ratio to native IgG1
B2	1.08 ratio
B3	0.97 ratio

What follows are binders tested against T2, human FcγRIIB α subunit extracellular … (assay: hexamer ELISA).

Binder	ratio to native IgG1
B2	1.07 ratio
B3	0.86 ratio

Biological target: T7, human FcγRIIIA-Phe158 α subunit …
Assay: hexamer ELISA
Remark: another data set of the same source

Binder	ratio to native IgG1
B2	0.31 ratio
B3	0.55 ratio

Each binder was assayed against T8, human neonatal Fc receptor (FcRn), biotinylated (human, UniProt P55899 24-297; P61769 21-119, biotinylated (biotin-X-NHS)) (assay: FcRn ELISA, pH 6.0;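 also: Streptavidin-captured FcRn plates, IgG variants titrated 2 h at pH 6.0, peroxidase anti-human IgG read at 450 nm, variant over standard concentration at the standard curve mid-point absorbance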).
T8 construct: captured on streptavidin plates
T8 sequence (P55899 24-297 limits assumed, chain 1 of 2): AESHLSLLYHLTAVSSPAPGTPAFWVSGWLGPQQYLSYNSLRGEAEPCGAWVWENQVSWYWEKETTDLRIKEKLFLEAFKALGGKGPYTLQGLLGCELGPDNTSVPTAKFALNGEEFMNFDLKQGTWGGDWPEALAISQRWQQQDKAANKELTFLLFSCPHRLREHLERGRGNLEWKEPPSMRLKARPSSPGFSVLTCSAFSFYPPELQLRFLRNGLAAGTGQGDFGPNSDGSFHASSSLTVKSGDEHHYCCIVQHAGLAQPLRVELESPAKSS
T8 sequence (P61769 21-119 limits assumed, chain 2 of 2): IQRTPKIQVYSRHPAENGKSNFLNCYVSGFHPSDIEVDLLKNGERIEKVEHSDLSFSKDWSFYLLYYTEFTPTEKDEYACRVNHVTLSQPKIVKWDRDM
Description: FcRn Binding ELISA: For measuring FcRn binding activity of IgG variants, ELISA plates were coated with 2 µg/ml streptavidin (Zymed, South San Francisco) in 50 mM carbonate buffer, pH 9.6, at 4° C. overnight and blocked with PBS-0.5% BSA, pH 7.2 at room temperature for one hour. Biotinylated FcRn (prepared using biotin-X-NHS from Research Organics, Cleveland, Ohio and used at 1–2 µg/ml) in PBS-0.5% BSA, 0.05% polysorbate 20, pH 7.2, was added to the plate and incubated for one hour. Two fold serial dilutions of IgG standard (1.6–100 ng/ml) or variants in PBS-0.5% BSA, 0.05% polysorbate 20, pH 6.0, were added to the plate and incubated for two hours. Bound IgG was detected using peroxidase labeled goat F(ab')_2 anti-human IgG F(ab')_2 in the above pH 6.0 buffer (Jackson ImmunoResearch, West Grove, Pa.) followed by 3,3',5,5'-tetramethyl benzidine (Kirgaard & Perry Laboratories) as the substrate. Plates were washed between steps with PBS-0.05% TWEEN 20® at either pH 7.2 or 6.0. Absorbance was read at 450 nm on a Vmax plate reader (Molecular Devices, Menlo Park, Calif.). Titration curves were fit with a four-parameter nonlinear regression curve-fitting program (KaleidaGraph, Synergy software, Reading, Pa.). Concentrations of IgG variants corresponding to the mid-point absorbance of the titration curve of the standard were calculated and then divided by the concentration of the standard corresponding to the mid-point absorbance of the standard titration curve.

Binder	ratio to native IgG1
B2	0.85 ratio
B3	0.79 ratio

What follows are binders tested against T9, human FcγRIA α subunit extracellular domain-His6-GST fusion (human, UniProt P12314 16-292) (assay: FcγRI ELISA and THP-1 cells, averaged).
T9 construct: extracellular domain; also called GST-FcγRIA; CD64; not shown: glutathione S transferase (GST)
T9 sequence (P12314 other isoform, or with tags, fused parts or gaps): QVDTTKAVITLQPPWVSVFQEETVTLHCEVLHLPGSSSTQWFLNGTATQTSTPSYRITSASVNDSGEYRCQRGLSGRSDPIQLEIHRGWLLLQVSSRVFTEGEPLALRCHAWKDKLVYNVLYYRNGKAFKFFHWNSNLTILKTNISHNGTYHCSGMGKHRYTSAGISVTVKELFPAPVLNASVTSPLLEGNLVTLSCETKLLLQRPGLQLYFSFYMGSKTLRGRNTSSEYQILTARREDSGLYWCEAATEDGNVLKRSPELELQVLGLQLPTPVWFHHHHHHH

Binder	ratio to native IgG1
B2	1.11 ratio
B3	1.03 ratio

The binders below were run against T3, human FcγRIIA-R131 α subunit … (assay: ELISA, IgG:IgE hexamers on receptor-GST).

Binder	ratio to native IgG1
B4	0.99
B5	1.1
B6	1.11
B7	1.05
B8	1.08
B9	1.09
B10	0.94

These binders were tested against T4, human FcγRIIB α subunit extracellular … (assay: ELISA, IgG:IgE hexamers on receptor-GST).

Binder	ratio to native IgG1
B4	0.93
B5	1.2
B6	1.23
B7	1.15
B8	1.05
B9	1.07
B10	0.91

These binders were tested against T10, human FcγRIIIA-F158 α subunit extracellular domain-6His-GST fusion (human, UniProt P08637 17-208) (assay: ELISA, IgG:IgE hexamers on receptor-GST).
T10 construct: also called FcγRIIIA-Phe158; not shown: glutathione S-transferase (GST)
T10 sequence (P08637 other isoform, or with tags, fused parts or gaps, form in doubt): as the sequence (P08637 other isoform, or with tags, fused parts or gaps) above

Binder	ratio to native IgG1
B4	0.49
B5	1.3
B6	1.42
B7	1.08
B8	1.31
B9	1.26
B10	1.07

Each binder was assayed against T5, human FcγRIIA-H131 α subunit … (assay: ELISA, IgG:IgE hexamer on coated FcγRIIA-H131-GST).

Binder	ratio of binding of the variant to that of native IgG1
B11	1.1 ratio (variant/native IgG1)
B12	0.54 ratio (variant/native IgG1)
B13	1.08 ratio (variant/native IgG1)
B14	1.02 ratio (variant/native IgG1)
B15	1.1 ratio (variant/native IgG1)
B16	1.18 ratio (variant/native IgG1)
B17	1.06 ratio (variant/native IgG1)
B18	0.97 ratio (variant/native IgG1)

These binders were tested against T11, human FcγRI (FcγRIA) α subunit extracellular domain-His6-GST fusion (human, UniProt P12314 16-292) (assay: monomeric IgG; ELISA on receptor-GST and THP-1 cells, averaged).
T11 construct: Reported FcγRI values are the average of the plate ELISA on this fusion and of a flow cytometry assay on THP-1 cells; also called GST-FcγRIA; not shown: glutathione S-transferase (GST)
T11 sequence (P12314 other isoform, or with tags, fused parts or gaps, form in doubt): as the sequence (P12314 other isoform, or with tags, fused parts or gaps) above

Binder	ratio to native IgG1
B4	1.18
B5	1.14
B6	1.23
B7	1.25
B8	1.15
B9	1.11
B10	1.16

What follows are binders tested against T5, human FcγRIIA-H131 α subunit … (assay: ELISA; binding ratio on FcγRIIA-H131 divided by that on FcγRIIA-R131).

Binder	H131/R131
B11	0.71 ratio (H131 value/R131 value)
B12	0.47 ratio (H131 value/R131 value)
B13	0.99 ratio (H131 value/R131 value)
B14	0.65 ratio (H131 value/R131 value)
B15	0.99 ratio (H131 value/R131 value)
B16	0.94 ratio (H131 value/R131 value)
B17	1.08 ratio (H131 value/R131 value)
B18	0.75 ratio (H131 value/R131 value)

The binders below were run against T6, human FcγRIIA-R131 α subunit … (assay: ELISA, IgG:IgE hexamer on coated FcγRIIA-R131-GST; value carried over from Table 6, 7 or 8).

Binder	ratio of binding of the variant to that of native IgG1
B11	1.52 ratio (variant/native IgG1)
B12	1.18 ratio (variant/native IgG1)
B13	1.13 ratio (variant/native IgG1)
B14	1.41 ratio (variant/native IgG1)
B15	1.15 ratio (variant/native IgG1)
B16	1.07 ratio (variant/native IgG1)
B17	1.12 ratio (variant/native IgG1)
B18	1.21 ratio (variant/native IgG1)

What follows are binders tested against T6, human FcγRIIA-R131 α subunit … (assay: ELISA, IgG:IgE hexamer on coated FcγRIIA-R131-GST; separate assays run together with the H131 assays).

Binder	ratio of binding of the variant to that of native IgG1
B11	1.53 ratio (variant/native IgG1)
B13	1.1 ratio (variant/native IgG1)
B14	1.57 ratio (variant/native IgG1)
B15	1.11 ratio (variant/native IgG1)
B16	1.28 ratio (variant/native IgG1)
B17	1 ratio (variant/native IgG1)
B18	1.3 ratio (variant/native IgG1)
